{
  "source": "paper PMC8184817",
  "about": "“Transmission of light signals from the light-oxygen-voltage core via the hydrophobic region of the β-sheet surface in aureochrome-1” (Scientific Reports, 2021)",
  "key": {"[1]": {"biological_target": "the molecule itself", "experiment": "SEC; light (L) state: 8 or 50 µM protein illuminated 2 min with blue light, column under continuous LED irradiation; Superdex 75, 400 mM NaCl, 20 mM Tris-HCl pH 7.0, 25 ± 1 °C, 0.5 mL/min; monomer to dimer"}, "[2]": {"biological_target": "the molecule itself", "experiment": "dynamic light scattering (DLS); light (L) state: immediately after 1 min of blue light, 30-60 µM protein, 25 °C, hydrodynamic radius extrapolated to 0 µM protein; monomer to dimer"}, "[3]": {"biological_target": "the molecule itself", "experiment": "SEC; dark (D) state: 8 or 50 µM protein incubated 20 min at 25 °C in the dark; Superdex 75 column, 400 mM NaCl, 20 mM Tris-HCl pH 7.0, 25 ± 1 °C, 0.5 mL/min; monomer to dimer"}, "[4]": {"biological_target": "the molecule itself", "experiment": "dynamic light scattering (DLS); dark (D) state: 30-60 µM protein, 25 °C, hydrodynamic radius extrapolated to 0 µM protein; monomer to dimer"}},
  "data": [
    {"protein": "Photozipper (PZ), N-terminally truncated aureochrome-1 of Vaucheria frigida, wild type (domain or fragment, UniProt A8QW55 113-348, looked up, aureochrome-1 of Vaucheria frigida (VfAUREO1), G113-K348 with C162S and C182S, encoded by the synthetic gene opZL; holds the bZIP and LOV domains; in the light (L) state FMN forms a covalent adduct with a conserved cysteine; also called wtPZ; source: recombinant protein) GSISSELTEAQKVERRERNREHAKRSRVRKKFLLESLQQSVNELNHENNSLKESIREHLGPRGDSLIAQSSPEADTLLTDNPSKANRILEDPDYSLVKALQMAQQNFVITDASLPDNPIVYASRGFLTLTGYSLDQILGRNCRFLQGPETDPRAVDKIRNAITKGVDTSVCLLNYRQDGTTFWNLFFVAGLRDSKGNIVNYVGVQSKVSEDYAKLLVNEQNIEYKGVRTSNMLRRK", "values": [
      {"measurement": "binding result", "setting": "[1]", "result": "binds"}
    ]},
    {"protein": "Photozipper (PZ) L303A mutant (domain or fragment, Vaucheria frigida, UniProt A8QW55 113-348, looked up, aureochrome-1 of Vaucheria frigida (VfAUREO1), G113-K348 with C162S and C182S (opZL gene), plus L303A; also called β-sheet mutant) GSISSELTEAQKVERRERNREHAKRSRVRKKFLLESLQQSVNELNHENNSLKESIREHLGPRGDSLIAQSSPEADTLLTDNPSKANRILEDPDYSLVKALQMAQQNFVITDASLPDNPIVYASRGFLTLTGYSLDQILGRNCRFLQGPETDPRAVDKIRNAITKGVDTSVCLLNYRQDGTTFWNLFFVAGARDSKGNIVNYVGVQSKVSEDYAKLLVNEQNIEYKGVRTSNMLRRK", "values": [
      {"measurement": "binding result", "setting": "[2]", "result": "binds"}
    ]},
    {"protein": "Photozipper (PZ) V316A mutant (domain or fragment, Vaucheria frigida, UniProt A8QW55 113-348, looked up, aureochrome-1 of Vaucheria frigida (VfAUREO1), G113-K348 with C162S and C182S (opZL gene), plus V316A; also called β-sheet mutant) GSISSELTEAQKVERRERNREHAKRSRVRKKFLLESLQQSVNELNHENNSLKESIREHLGPRGDSLIAQSSPEADTLLTDNPSKANRILEDPDYSLVKALQMAQQNFVITDASLPDNPIVYASRGFLTLTGYSLDQILGRNCRFLQGPETDPRAVDKIRNAITKGVDTSVCLLNYRQDGTTFWNLFFVAGLRDSKGNIVNYVGAQSKVSEDYAKLLVNEQNIEYKGVRTSNMLRRK", "values": [
      {"measurement": "binding result", "setting": "[3]", "result": "binds"}
    ]},
    {"protein": "Photozipper (PZ) F299V mutant (domain or fragment, Vaucheria frigida, UniProt A8QW55 113-348, looked up, aureochrome-1 of Vaucheria frigida (VfAUREO1), G113-K348 with C162S and C182S (opZL gene), plus F299V; also called β-sheet mutant) GSISSELTEAQKVERRERNREHAKRSRVRKKFLLESLQQSVNELNHENNSLKESIREHLGPRGDSLIAQSSPEADTLLTDNPSKANRILEDPDYSLVKALQMAQQNFVITDASLPDNPIVYASRGFLTLTGYSLDQILGRNCRFLQGPETDPRAVDKIRNAITKGVDTSVCLLNYRQDGTTFWNLFVVAGLRDSKGNIVNYVGVQSKVSEDYAKLLVNEQNIEYKGVRTSNMLRRK", "values": [
      {"measurement": "binding result", "setting": "[2]", "result": "binds"}
    ]},
    {"protein": "Photozipper (PZ) L208A mutant (domain or fragment, Vaucheria frigida, UniProt A8QW55 113-348, looked up, aureochrome-1 of Vaucheria frigida (VfAUREO1), G113-K348 with C162S and C182S (opZL gene), plus L208A; also called L208L (as printed once); A'α mutant) GSISSELTEAQKVERRERNREHAKRSRVRKKFLLESLQQSVNELNHENNSLKESIREHLGPRGDSLIAQSSPEADTLLTDNPSKANRILEDPDYSAVKALQMAQQNFVITDASLPDNPIVYASRGFLTLTGYSLDQILGRNCRFLQGPETDPRAVDKIRNAITKGVDTSVCLLNYRQDGTTFWNLFFVAGLRDSKGNIVNYVGVQSKVSEDYAKLLVNEQNIEYKGVRTSNMLRRK", "values": [
      {"measurement": "binding result", "setting": "[3]", "result": "binds"}
    ]},
    {"protein": "Photozipper (PZ) Q216A mutant (domain or fragment, Vaucheria frigida, UniProt A8QW55 113-348, looked up, aureochrome-1 of Vaucheria frigida (VfAUREO1), G113-K348 with C162S and C182S (opZL gene), plus Q216A; also called hinge mutant) GSISSELTEAQKVERRERNREHAKRSRVRKKFLLESLQQSVNELNHENNSLKESIREHLGPRGDSLIAQSSPEADTLLTDNPSKANRILEDPDYSLVKALQMAAQNFVITDASLPDNPIVYASRGFLTLTGYSLDQILGRNCRFLQGPETDPRAVDKIRNAITKGVDTSVCLLNYRQDGTTFWNLFFVAGLRDSKGNIVNYVGVQSKVSEDYAKLLVNEQNIEYKGVRTSNMLRRK", "values": [
      {"measurement": "binding result", "setting": "[2]", "result": "binds"}
    ]},
    {"protein": "Photozipper (PZ) L201A mutant (domain or fragment, Vaucheria frigida, UniProt A8QW55 113-348, looked up, aureochrome-1 of Vaucheria frigida (VfAUREO1), G113-K348 with C162S and C182S (opZL gene), plus L201A; also called A'α mutant) GSISSELTEAQKVERRERNREHAKRSRVRKKFLLESLQQSVNELNHENNSLKESIREHLGPRGDSLIAQSSPEADTLLTDNPSKANRIAEDPDYSLVKALQMAQQNFVITDASLPDNPIVYASRGFLTLTGYSLDQILGRNCRFLQGPETDPRAVDKIRNAITKGVDTSVCLLNYRQDGTTFWNLFFVAGLRDSKGNIVNYVGVQSKVSEDYAKLLVNEQNIEYKGVRTSNMLRRK", "values": [
      {"measurement": "binding result", "setting": "[3]", "result": "binds"}
    ]},
    {"protein": "Photozipper (PZ) V314A mutant (domain or fragment, Vaucheria frigida, UniProt A8QW55 113-348, looked up, aureochrome-1 of Vaucheria frigida (VfAUREO1), G113-K348 with C162S and C182S (opZL gene), plus V314A; also called β-sheet mutant) GSISSELTEAQKVERRERNREHAKRSRVRKKFLLESLQQSVNELNHENNSLKESIREHLGPRGDSLIAQSSPEADTLLTDNPSKANRILEDPDYSLVKALQMAQQNFVITDASLPDNPIVYASRGFLTLTGYSLDQILGRNCRFLQGPETDPRAVDKIRNAITKGVDTSVCLLNYRQDGTTFWNLFFVAGLRDSKGNIVNYAGVQSKVSEDYAKLLVNEQNIEYKGVRTSNMLRRK", "values": [
      {"measurement": "binding result", "setting": "[1]", "result": "binds"}
    ]},
    {"protein": "Photozipper (PZ) L212A mutant (domain or fragment, Vaucheria frigida, UniProt A8QW55 113-348, looked up, aureochrome-1 of Vaucheria frigida (VfAUREO1), G113-K348 with C162S and C182S (opZL gene), plus L212A; also called A'α mutant) GSISSELTEAQKVERRERNREHAKRSRVRKKFLLESLQQSVNELNHENNSLKESIREHLGPRGDSLIAQSSPEADTLLTDNPSKANRILEDPDYSLVKAAQMAQQNFVITDASLPDNPIVYASRGFLTLTGYSLDQILGRNCRFLQGPETDPRAVDKIRNAITKGVDTSVCLLNYRQDGTTFWNLFFVAGLRDSKGNIVNYVGVQSKVSEDYAKLLVNEQNIEYKGVRTSNMLRRK", "values": [
      {"measurement": "binding result", "setting": "[4]", "result": "binds"}
    ]},
    {"protein": "Photozipper (PZ) N218A mutant (domain or fragment, Vaucheria frigida, UniProt A8QW55 113-348, looked up, aureochrome-1 of Vaucheria frigida (VfAUREO1), G113-K348 with C162S and C182S (opZL gene), plus N218A; also called hinge mutant) GSISSELTEAQKVERRERNREHAKRSRVRKKFLLESLQQSVNELNHENNSLKESIREHLGPRGDSLIAQSSPEADTLLTDNPSKANRILEDPDYSLVKALQMAQQAFVITDASLPDNPIVYASRGFLTLTGYSLDQILGRNCRFLQGPETDPRAVDKIRNAITKGVDTSVCLLNYRQDGTTFWNLFFVAGLRDSKGNIVNYVGVQSKVSEDYAKLLVNEQNIEYKGVRTSNMLRRK", "values": [
      {"measurement": "binding result", "setting": "[2]", "result": "binds"}
    ]},
    {"protein": "Photozipper (PZ) L201A/L208A/L212A triple mutant (domain or fragment, Vaucheria frigida, UniProt A8QW55 113-348, looked up, aureochrome-1 of Vaucheria frigida (VfAUREO1), G113-K348 with C162S and C182S (opZL gene), plus L201A, L208A and L212A; also called A'α mutant) GSISSELTEAQKVERRERNREHAKRSRVRKKFLLESLQQSVNELNHENNSLKESIREHLGPRGDSLIAQSSPEADTLLTDNPSKANRIAEDPDYSAVKAAQMAQQNFVITDASLPDNPIVYASRGFLTLTGYSLDQILGRNCRFLQGPETDPRAVDKIRNAITKGVDTSVCLLNYRQDGTTFWNLFFVAGLRDSKGNIVNYVGVQSKVSEDYAKLLVNEQNIEYKGVRTSNMLRRK", "values": [
      {"measurement": "binding result", "setting": "[3]", "result": "binds"}
    ]},
    {"protein": "Photozipper (PZ) V314I mutant (domain or fragment, Vaucheria frigida, UniProt A8QW55 113-348, looked up, aureochrome-1 of Vaucheria frigida (VfAUREO1), G113-K348 with C162S and C182S (opZL gene), plus V314I; also called β-sheet mutant) GSISSELTEAQKVERRERNREHAKRSRVRKKFLLESLQQSVNELNHENNSLKESIREHLGPRGDSLIAQSSPEADTLLTDNPSKANRILEDPDYSLVKALQMAQQNFVITDASLPDNPIVYASRGFLTLTGYSLDQILGRNCRFLQGPETDPRAVDKIRNAITKGVDTSVCLLNYRQDGTTFWNLFFVAGLRDSKGNIVNYIGVQSKVSEDYAKLLVNEQNIEYKGVRTSNMLRRK", "values": [
      {"measurement": "stoichiometry N", "setting": "[3]", "result": 2}
    ]},
    {"protein": "Photozipper (PZ) Q217A mutant (domain or fragment, Vaucheria frigida, UniProt A8QW55 113-348, looked up, aureochrome-1 of Vaucheria frigida (VfAUREO1), G113-K348 with C162S and C182S (opZL gene), plus Q217A; also called hinge mutant) GSISSELTEAQKVERRERNREHAKRSRVRKKFLLESLQQSVNELNHENNSLKESIREHLGPRGDSLIAQSSPEADTLLTDNPSKANRILEDPDYSLVKALQMAQANFVITDASLPDNPIVYASRGFLTLTGYSLDQILGRNCRFLQGPETDPRAVDKIRNAITKGVDTSVCLLNYRQDGTTFWNLFFVAGLRDSKGNIVNYVGVQSKVSEDYAKLLVNEQNIEYKGVRTSNMLRRK", "values": [
      {"measurement": "binding result", "setting": "[2]", "result": "binds"}
    ]},
    {"protein": "Photozipper (PZ) F219V mutant (domain or fragment, Vaucheria frigida, UniProt A8QW55 113-348, looked up, aureochrome-1 of Vaucheria frigida (VfAUREO1), G113-K348 with C162S and C182S (opZL gene), plus F219V; also called β-sheet mutant) GSISSELTEAQKVERRERNREHAKRSRVRKKFLLESLQQSVNELNHENNSLKESIREHLGPRGDSLIAQSSPEADTLLTDNPSKANRILEDPDYSLVKALQMAQQNVVITDASLPDNPIVYASRGFLTLTGYSLDQILGRNCRFLQGPETDPRAVDKIRNAITKGVDTSVCLLNYRQDGTTFWNLFFVAGLRDSKGNIVNYVGVQSKVSEDYAKLLVNEQNIEYKGVRTSNMLRRK", "values": [
      {"measurement": "stoichiometry N", "setting": "[3]", "result": 2}
    ]}
  ]
}
